“Also recorded” adds a separate entry of the source.

This data set addresses 14C-labeled type I procollagen purified from chick embryo fibroblasts, P02457.

14C-labeled type I procollagen purified from chick embryo fibroblasts, P02457, sequence (P02457 23-1453, chain 1 of 2): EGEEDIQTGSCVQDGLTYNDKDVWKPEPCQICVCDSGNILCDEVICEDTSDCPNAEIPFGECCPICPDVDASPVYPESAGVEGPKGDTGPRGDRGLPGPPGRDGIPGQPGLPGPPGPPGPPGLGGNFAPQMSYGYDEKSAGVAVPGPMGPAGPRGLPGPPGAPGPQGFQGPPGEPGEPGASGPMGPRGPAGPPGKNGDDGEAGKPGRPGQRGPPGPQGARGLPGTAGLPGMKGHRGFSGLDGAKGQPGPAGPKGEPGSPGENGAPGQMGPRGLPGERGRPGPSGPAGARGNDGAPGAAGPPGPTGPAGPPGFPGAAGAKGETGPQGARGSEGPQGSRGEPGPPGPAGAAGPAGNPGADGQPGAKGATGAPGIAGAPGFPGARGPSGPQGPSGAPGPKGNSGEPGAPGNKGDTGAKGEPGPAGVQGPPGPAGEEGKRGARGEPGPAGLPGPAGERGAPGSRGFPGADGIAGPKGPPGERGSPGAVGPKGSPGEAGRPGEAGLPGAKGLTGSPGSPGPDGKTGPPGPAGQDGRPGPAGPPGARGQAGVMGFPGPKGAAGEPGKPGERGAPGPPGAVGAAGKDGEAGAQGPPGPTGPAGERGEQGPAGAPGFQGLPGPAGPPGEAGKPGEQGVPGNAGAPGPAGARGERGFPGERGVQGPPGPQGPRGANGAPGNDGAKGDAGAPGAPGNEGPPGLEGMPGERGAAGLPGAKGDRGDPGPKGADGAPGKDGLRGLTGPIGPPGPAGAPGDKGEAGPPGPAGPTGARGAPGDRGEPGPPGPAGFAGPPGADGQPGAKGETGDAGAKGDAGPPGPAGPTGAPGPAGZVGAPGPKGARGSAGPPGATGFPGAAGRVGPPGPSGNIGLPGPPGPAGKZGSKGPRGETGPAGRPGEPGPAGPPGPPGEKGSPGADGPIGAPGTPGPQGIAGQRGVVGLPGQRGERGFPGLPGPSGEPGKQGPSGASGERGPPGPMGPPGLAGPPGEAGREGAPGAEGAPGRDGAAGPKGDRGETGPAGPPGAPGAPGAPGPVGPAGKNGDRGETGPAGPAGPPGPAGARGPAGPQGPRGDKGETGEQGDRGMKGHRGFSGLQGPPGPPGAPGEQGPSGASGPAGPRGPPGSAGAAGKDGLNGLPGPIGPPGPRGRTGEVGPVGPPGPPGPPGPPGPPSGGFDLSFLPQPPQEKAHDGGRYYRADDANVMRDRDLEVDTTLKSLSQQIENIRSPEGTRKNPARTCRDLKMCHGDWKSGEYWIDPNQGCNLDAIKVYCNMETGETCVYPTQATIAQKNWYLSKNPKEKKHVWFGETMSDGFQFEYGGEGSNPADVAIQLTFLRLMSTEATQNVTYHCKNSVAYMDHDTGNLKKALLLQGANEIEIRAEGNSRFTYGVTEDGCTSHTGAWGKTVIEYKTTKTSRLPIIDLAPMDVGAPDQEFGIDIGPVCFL
14C-labeled type I procollagen purified from chick embryo fibroblasts, P02457, sequence (chain, as listed by the source, chain 2 of 2): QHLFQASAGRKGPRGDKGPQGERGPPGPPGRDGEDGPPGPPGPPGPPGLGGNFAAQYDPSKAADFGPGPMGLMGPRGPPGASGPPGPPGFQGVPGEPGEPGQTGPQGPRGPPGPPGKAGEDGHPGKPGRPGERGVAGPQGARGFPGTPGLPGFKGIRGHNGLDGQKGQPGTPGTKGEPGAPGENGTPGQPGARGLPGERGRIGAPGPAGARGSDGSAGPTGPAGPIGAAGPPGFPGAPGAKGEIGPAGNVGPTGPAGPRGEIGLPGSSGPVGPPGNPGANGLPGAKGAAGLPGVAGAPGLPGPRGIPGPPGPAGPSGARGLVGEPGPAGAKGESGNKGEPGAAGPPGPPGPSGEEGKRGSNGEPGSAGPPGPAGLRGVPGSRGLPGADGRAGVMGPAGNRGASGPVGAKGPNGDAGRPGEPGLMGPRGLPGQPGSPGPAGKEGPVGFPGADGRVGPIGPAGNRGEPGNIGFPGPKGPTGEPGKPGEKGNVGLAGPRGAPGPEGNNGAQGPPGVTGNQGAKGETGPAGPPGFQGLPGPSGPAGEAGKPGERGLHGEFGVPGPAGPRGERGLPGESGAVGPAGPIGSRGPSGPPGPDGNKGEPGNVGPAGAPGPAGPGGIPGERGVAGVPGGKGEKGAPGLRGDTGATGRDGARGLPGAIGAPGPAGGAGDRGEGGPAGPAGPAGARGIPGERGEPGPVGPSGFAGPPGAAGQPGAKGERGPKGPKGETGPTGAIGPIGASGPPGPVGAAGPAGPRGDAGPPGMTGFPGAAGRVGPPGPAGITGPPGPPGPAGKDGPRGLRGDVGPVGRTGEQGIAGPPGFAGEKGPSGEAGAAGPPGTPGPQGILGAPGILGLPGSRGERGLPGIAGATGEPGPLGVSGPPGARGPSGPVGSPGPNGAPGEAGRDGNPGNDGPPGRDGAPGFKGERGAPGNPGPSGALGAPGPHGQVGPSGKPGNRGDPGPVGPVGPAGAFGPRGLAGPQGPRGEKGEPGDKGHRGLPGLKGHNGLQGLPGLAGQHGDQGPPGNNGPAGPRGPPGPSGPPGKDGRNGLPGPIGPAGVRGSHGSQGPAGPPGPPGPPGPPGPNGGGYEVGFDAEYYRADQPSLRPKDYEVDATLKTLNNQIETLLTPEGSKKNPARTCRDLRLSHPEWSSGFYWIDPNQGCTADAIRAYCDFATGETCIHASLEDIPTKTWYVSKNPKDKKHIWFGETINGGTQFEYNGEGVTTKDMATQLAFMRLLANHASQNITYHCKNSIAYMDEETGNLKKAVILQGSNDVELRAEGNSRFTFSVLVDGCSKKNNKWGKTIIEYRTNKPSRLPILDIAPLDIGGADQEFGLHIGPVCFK

B1: recombinant pCP-2 with a 6-histidine tag, expressed in E. coli, refolded, without chymotrypsin activation (protein)
chain: LDFPDYTYDLAEEDDSEPLNYKDPCKAAAFLGDIALDEEDLRAFQVQQAVDVRRHTARKSSIKAAVPGNTSTPTCQSTNGQPQRGACGRWRGRSRSRRAATSRPEPVWPDGVIPFVIGGNFTGSQRAVFPQAMRHWEKHTCVTFLERTDEDSYILFTYAPCGCCSYVGRRGGGPQAISMGKNCDKFGIVVHELGHVVGLWHEHTGPDRDRQVSIVRENIQPGQEYNFLKMEPQEVESLGETYDFDSIMHYARNTFSRGIFLDTIVPKYEVNGVKPPIGQRTRLRKGDIAQAPKLYKCPACGETLQDSTGNFSSPEYPNGYSAHMHCVWRICVTPGEKIILNFTSLDLYRSGLCWYQYVEVRDGFWRKAPLRGRFCGSKLPEPIVSTDSRLWVQFRSSSNWLGKGFFPVYEAMWGGDVKKDYGQIQSPNYPDDYRPSKVWMWRIQVSEGFDVGLTFQSFEIERHDSCGYDYLEVRDGHSESSTLIGRYCRYEKPDEIKSTSSPLWLKFVSDGSINKPGFAVNFFKEVDECSRPNRGGCEQRCLNTLGSYKWSCDPGYELPPEKRRCEAPCGGFLTKLNGSISRGGWPKEYPPNKNCIWQLVAPTQYRISLQFDFFETEGNDVCKYDFVEVRSGLTADSKLHGKFCGSEKPEVITSQYNNMRVEFKSDNTVSKKGFKAHFFSDKDECSKDNGGCQQDCVNTFGSYECQCRSGFVLHDNKHDCKEPGCDHKVTSTSGTITSPNWPDKYPSKKECTWAISSTPGHRVKLTFMEMDIESQPECAYDHLEVFDGRDAKAPVLGRFCGSKKPEPVLGTGSRMFLRFYSDNSVQRKGFQASHATECGGQVGADVKTKDLYSHAQFGDNNYPGGVDCEWVIVPEEGYGVEVLFQTFEVEDQTDCGYHYMELFDGYDSTAPRLGRYCGSGPPEEVYSAGDSVLVKFHSDDTITKKGFHLRYTSTKFQDTLHSRK
For B1, the “C-proteinase activity in a standard reaction system with 14C-labeled procollagen” value is reported as “No C-proteinase activity was observed when the recombinant protein was incubated in a standard reaction system without prior activation of the protein by digestion with chymotrypsin”.

B2: procollagen C-proteinase pCP-2 (986 amino acids), recombinant, in medium of transfected HT-1080 cells (protein)
chain: AATSRPEPVWPDGVIPFVIGGNFTGSQRAVFPQAMRHWEKHTCVTFLERTDEDSYILFTYAPCGCCSYVGRRGGGPQAISMGKNCDKFGIVVHELGHVVGLWHEHTGPDRDRQVSIVRENIQPGQEYNFLKMEPQEVESLGETYDFDSIMHYARNTFSRGIFLDTIVPKYEVNGVKPPIGQRTRLRKGDIAQAPKLYKCPACGETLQDSTGNFSSPEYPNGYSAHMHCVWRICVTPGEKIILNFTSLDLYRSGLCWYQYVEVRDGFWRKAPLRGRFCGSKLPEPIVSTDSRLWVQFRSSSNWLGKGFFPVYEAMWGGDVKKDYGQIQSPNYPDDYRPSKVWMWRIQVSEGFDVGLTFQSFEIERHDSCGYDYLEVRDGHSESSTLIGRYCRYEKPDEIKSTSSPLWLKFVSDGSINKPGFAVNFFKEVDECSRPNRGGCEQRCLNTLGSYKWSCDPGYELPPEKRRCEAPCGGFLTKLNGSISRGGWPKEYPPNKNCIWQLVAPTQYRISLQFDFFETEGNDVCKYDFVEVRSGLTADSKLHGKFCGSEKPEVITSQYNNMRVEFKSDNTVSKKGFKAHFFSDKDECSKDNGGCQQDCVNTFGSYECQCRSGFVLHDNKHDCKEPGCDHKVTSTSGTITSPNWPDKYPSKKECTWAISSTPGHRVKLTFMEMDIESQPECAYDHLEVFDGRDAKAPVLGRFCGSKKPEPVLGTGSRMFLRFYSDNSVQRKGFQASHATECGGQVGADVKTKDLYSHAQFGDNNYPGGVDCEWVIVPEEGYGVEVLFQTFEVEDQTDCGYHYMELFDGYDSTAPRLGRYCGSGPPEEVYSAGDSVLVKFHSDDTITKKGFHLRYTSTKFQDTLHSRK
Consider B2, for which the “C-proteinase activity: cleavage of 14C-labeled type I procollagen, SDS-polyacrylamide gel” value was “Medium from neomycin-resistant clones expressing either pCP-1 or pCP-2 contained enzymatic activity that specifically cleaved type I procollagen into the products predicted by the introduction of C-proteinase; also recorded: Complete cleavage of type I procollagen to pNα1 (I) chains, pNα2 (I) chains and the C-propeptide were obtained with medium from a clone transfected with pCP-2 and partially fractionated and concentrated by membrane filtration”.

B3: recombinant pCP-2 with a 6-histidine tag, expressed in E. coli, refolded and activated by limited digestion with chymotrypsin (protein)
chain: B2 chain
B3: the “C-proteinase activity in a standard reaction system with 14C-labeled procollagen” value was “Specific C-proteinase activity was observed (Lanes 1 to 4 in FIG. 5 ) after limited digestion with chymotrypsin” and the “specific activity relative to C-proteinase isolated from chick embryo tendons” value is listed as “about 1/30-th of the specific activity of C-proteinase isolated from chick embryo tendons”.

B4: procollagen C-proteinase pCP-1 (730 amino acids), recombinant, in medium of transfected HT-1080 cells (protein)
chain: AATSRPERVWPDGVIPFVIGGNFTGSQRAVFRQAMRHWEKHTCVTFLERTDEHSYILFTYRPCGCCSYVGPRGGGPQAISIGKNCDKFGIVVHELGHVVGFWHEHTRPDRDRHVSIVRENIQPGQEYNFLKMEPQEVESLGETYDFDSIMHYARNTFSRGIFLDTIVPKYEVNGVKPPIGQRTRLSKGDIAQARKLYKCPACGETLQDSTGNFSSPEYPNGYSAHMHCVWRISVTPGEKIILNFTSLDLYRSPLCWYDYVEVRDGFWRKAPLRGRFCGSKLPEPIVSTDSRLWVEFRSSSNWVGNGFFAVYEGICGGDVKKDYGHIQSPNYPDDYRPSKVCIWRIQVSEGFHVGLTFQSFEIERHDSCAYDYLEVRDGHSESSTLIGRYCGYEKPDDIKSTSSRLWLKFVSDGSINKAGFAVNFFKEVDECSRPNRGGCEQRCLNTLGSYKCSCHPGYELAPDKRRCEAACGGFLTKLNGSITSPGWPKEYPPNKNCIWQLVAPTQYRISLQFDFFETEGNDVCKYDFVEVRSGLTAHSKLHGKFCGSEKPEVITSQYNNMRVEFKSDNTVSKKGFKAHFFSENRPALQPPRGPPHQLKFRVQKRNRTPQ
B4: the “C-proteinase activity: cleavage of 14C-labeled type I procollagen, SDS-polyacrylamide gel” value is “Medium from neomycin-resistant clones expressing either pCP-1 or pCP-2 contained enzymatic activity that specifically cleaved type I procollagen into the products predicted by the introduction of C-proteinase”.

Values taken from patent US6562613.
